Data reported in IntAct's records for PubMed 31515488.

B1: Ornithine decarboxylase antizyme 3 (Homo sapiens), Q9UMX2 (parent)
chain: MPCKRCRPSVYSLSYIKRGKTRNYLYPIWSPYAYYLYCYKYRITLREKMLPRCYKSITYKEEEDLTLQPRSCLQCSESLVGLQEGKSTEQGNHDQLKELYSAGNLTVLATDPLLHQDPVQLDFHFRLTSQTSAHWHGLLCDRRLFLDIPYQALDQGNRESLTATLEYVEEKTNVDSVFVNFQNDRNDRGALLRAFSYMGFEVVRPDHPALPPLDNVIFMVYPLERDVGHLPSEPP
partner: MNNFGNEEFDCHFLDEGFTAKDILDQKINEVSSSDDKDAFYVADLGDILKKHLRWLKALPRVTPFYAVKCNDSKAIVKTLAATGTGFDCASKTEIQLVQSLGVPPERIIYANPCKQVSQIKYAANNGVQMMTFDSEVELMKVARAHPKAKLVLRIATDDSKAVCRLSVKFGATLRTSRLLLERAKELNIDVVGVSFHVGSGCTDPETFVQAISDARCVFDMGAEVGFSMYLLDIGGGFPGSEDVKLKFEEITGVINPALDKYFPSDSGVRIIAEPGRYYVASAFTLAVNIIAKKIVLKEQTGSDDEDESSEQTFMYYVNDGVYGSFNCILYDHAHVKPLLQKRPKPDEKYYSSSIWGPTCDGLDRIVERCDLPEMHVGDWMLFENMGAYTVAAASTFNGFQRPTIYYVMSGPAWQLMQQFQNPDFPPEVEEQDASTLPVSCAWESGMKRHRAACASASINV
B2: C-C motif chemokine 4 (Homo sapiens), P13236 (parent)
chain: MKLCVTVLSLLMLVAAFCSPALSAPMGSDPPTACCFSYTARKLPRNFVVDYYETSSLCSQPAVVFQTKRSKQVCADPSESWVQEYVYDLELN
partner: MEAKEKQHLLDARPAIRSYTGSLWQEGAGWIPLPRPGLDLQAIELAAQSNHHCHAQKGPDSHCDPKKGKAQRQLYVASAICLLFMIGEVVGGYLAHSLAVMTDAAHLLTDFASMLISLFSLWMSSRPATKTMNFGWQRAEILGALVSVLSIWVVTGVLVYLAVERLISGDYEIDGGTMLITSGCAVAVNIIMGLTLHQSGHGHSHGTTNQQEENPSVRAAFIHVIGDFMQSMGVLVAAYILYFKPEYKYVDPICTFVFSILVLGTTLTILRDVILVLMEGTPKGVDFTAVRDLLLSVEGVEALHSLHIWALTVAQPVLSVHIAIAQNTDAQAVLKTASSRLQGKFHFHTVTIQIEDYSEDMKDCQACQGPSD
B3: DNA topoisomerase 3-beta-1 (Homo sapiens), O95985 (parent)
chain: MKTVLMVAEKPSLAQSIAKILSRGSLSSHKGLNGACSVHEYTGTFAGQPVRFKMTSVCGHVMTLDFLGKYNKWDKVDPAELFSQAPTEKKEANPKLNMVKFLQVEGRGCDYIVLWLDCDKEGENICFEVLDAVLPVMNKAHGGEKTVFRARFSSITDTDICNAMACLGEPDHNEALSVDARQELDLRIGCAFTRFQTKYFQGKYGDLDSSLISFGPCQTPTLGFCVERHDKIQSFKPETYWVLQAKVNTDKDRSLLLDWDRVRVFDREIAQMFLNMTKLEKEAQVEATSRKEKAKQRPLALNTVEMLRVASSSLGMGPQHAMQTAERLYTQGYISYPRTETTHYPENFDLKGSLRQQANHPYWADTVKRLLAEGINRPRKGHDAGDHPPITPMKSATEAELGGDAWRLYEYITRHFIATVSHDCKYLQSTISFRIGPELFTCSGKTVLSPGFTEVMPWQSVPLEESLPTCQRGDAFPVGEVKMLEKQTNPPDYLTEAELITLMEKHGIGTDASIPVHINNICQRNYVTVESGRRLKPTNLGIVLVHGYYKIDAELVLPTIRSAVEKQLNLIAQGKADYRQVLGHTLDVFKRKFHYFVDSIAGMDELMEVSFSPLAATGKPLSRCGKCHRFMKYIQAKPSRLHCSHCDETYTLPQNGTIKLYKELRCPLDDFELVLWSSGSRGKSYPLCPYCYNHPPFRDMKKGMGCNECTHPSCQHSLSMLGIGQCVECESGVLVLDPTSGPKWKVACNKCNVVAHCFENAHRVRVSADTCSVCEAALLDVDFNKAKSPLPGDETQHMGCVFCDPVFQELVELKHAASCHPMHRGGPGRRQGRGRGRARRPPGKPNPRRPKDKMSALAAYFV
B4: Emerin (Homo sapiens), P50402 (parent)
chain: MDNYADLSDTELTTLLRRYNIPHGPVVGSTRRLYEKKIFEYETQRRRLSPPSSSAASSYSFSDLNSTRGDADMYDLPKKEDALLYQSKGYNDDYYEESYFTTRTYGEPESAGPSRAVRQSVTSFPDADAFHHQVHDDDLLSSSEEECKDRERPMYGRDSAYQSITHYRPVSASRSSLDLSYYPTSSSTSFMSSSSSSSSWLTRRAIRPENRAPGAGLGQDRQVPLWGQLLLFLVFVIVLFFIYHFMQAEEGNPF
partner: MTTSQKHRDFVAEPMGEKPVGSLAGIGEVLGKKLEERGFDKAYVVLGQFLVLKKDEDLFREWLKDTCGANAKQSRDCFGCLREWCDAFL

Variants of: B1
Conditions: with dcor_human ODC1, P11926
With R193Q the “effect of a mutation on the interaction” value was “disrupting interaction strength”.

Variants of: B2
Conditions: with znt2_human SLC30A2, Q9BRI3
A21V was tested, and the “effect of a mutation on the interaction” value was “disrupting interaction strength”. A16T was tested, and the “effect of a mutation on the interaction” value was “disrupting interaction strength”. For C18R, the “effect of a mutation on the interaction” value was “with no effect”.

Variants of: B3
Conditions: with trim1_human MID2, Q9UJV3
Sequence of trim1_human MID2, Q9UJV3 (Q9UJV3 whole entry): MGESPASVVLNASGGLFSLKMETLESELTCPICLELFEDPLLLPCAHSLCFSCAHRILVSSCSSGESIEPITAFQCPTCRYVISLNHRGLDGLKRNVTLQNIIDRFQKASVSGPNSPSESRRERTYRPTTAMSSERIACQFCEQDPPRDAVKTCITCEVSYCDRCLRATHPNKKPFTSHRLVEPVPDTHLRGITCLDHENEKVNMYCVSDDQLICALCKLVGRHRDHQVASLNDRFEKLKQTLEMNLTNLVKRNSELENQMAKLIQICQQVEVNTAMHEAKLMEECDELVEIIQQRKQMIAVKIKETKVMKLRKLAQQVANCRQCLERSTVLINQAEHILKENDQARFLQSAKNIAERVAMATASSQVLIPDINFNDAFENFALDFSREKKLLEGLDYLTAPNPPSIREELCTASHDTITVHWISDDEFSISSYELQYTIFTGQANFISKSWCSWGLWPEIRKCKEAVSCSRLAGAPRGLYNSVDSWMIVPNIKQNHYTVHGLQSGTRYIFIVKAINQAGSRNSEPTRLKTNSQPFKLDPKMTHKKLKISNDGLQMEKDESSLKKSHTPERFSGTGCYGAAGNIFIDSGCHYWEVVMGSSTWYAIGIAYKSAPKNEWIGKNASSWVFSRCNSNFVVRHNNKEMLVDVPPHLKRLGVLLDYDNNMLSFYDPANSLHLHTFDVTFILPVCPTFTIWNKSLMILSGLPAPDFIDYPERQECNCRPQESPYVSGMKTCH
R267W was tested, and the “effect of a mutation on the interaction” value was “disrupting interaction strength”.

Variants of: B3
Conditions: with tri41_human TRIM41, Q8WV44
For R267W, the “effect of a mutation on the interaction” value was “disrupting interaction strength”.

Variants of: B4
Conditions: with baf_human BANF1, O75531
In the case of S54F, the “effect of a mutation on the interaction” value is reported as “with no effect”. In the case of R203H, the “effect of a mutation on the interaction” value is reported as “with no effect”. In the case of P183T, the “effect of a mutation on the interaction” value is reported as “with no effect”. For D72V, the “effect of a mutation on the interaction” value was “with no effect”. G156S was tested, and the “effect of a mutation on the interaction” value was “with no effect”.
